From the supplement of paper PMC10567573

B1: INTS3 (parent)
chain: YPPLEGHVRQGVFSSLNHIVEKRV

Variants of: B1
Assay: protein stability index of a GFP-peptide fusion (GPS, HEK-293T) (PSI 1-6); higher = more stable
Conditions: c terminus: a fixed tail appended
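Also: lentivirally expressed fusions sorted by FACS into six bins by GFP to DsRed ratio, PSI derived from sequencing read proportions per bin multiplied by bin number.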

Variant	protein stability index
YPPLEGHVRQGVFSSLNHIVEKRD [V24D]	3.16
YPPLEGHVRQGVFSSLNHIVEKRI [V24I]	2.69
YPPLEGHVRQGVFSSLNHIVEKRC [V24C]	2.01
YPPLEGHVRQGVFSSLNHIVEKRT [V24T]	2.09
YPPLEGHVRQGVFSSLNHIVEKRS [V24S]	2.58
YPPLEGHVRQGVFSSLNHIVEKRA [V24A]	3.31
YPPLEGHVRQGVFSSLNHIVEKRL [V24L]	2.78
YPPLEGHVRQGVFSSLNHRVEKRV [I19R]	3.04
YPPLEGHVRQGVFSSLNHYVEKRV [I19Y]	2.07
YPPLEGHVRQGRFSSLNHIVEKRV [V12R]	3.5
YPPLEGHVRQGNFSSLNHIVEKRV [V12N]	3.15
YPPLEGHVRQGCFSSLNHIVEKRV [V12C]	2.21
YPPLEGHVRQGTFSSLNHIVEKRV [V12T]	3.27
YPPLEGHVRQGFFSSLNHIVEKRV [V12F]	2.69
APPLEGHVRQGVFSSLNHIVEKRV [Y1A]	4.01
NPPLEGHVRQGVFSSLNHIVEKRV [Y1N]	4.12
SPPLEGHVRQGVFSSLNHIVEKRV [Y1S]	3.78
YPPLEGHVRQGVFSSLNHIWEKRV [V20W]	2.02
YPPLEGHVRQGVFSSLNHIHEKRV [V20H]	2.36
YPPLEGHVRQGVFSSLNHIAEKRV [V20A]	2.7
YPPLEGHVRQGVFSSLNHIKEKRV [V20K]	2.43
YPPLEGHVRQGVFSSLGHIVEKRV [N17G]	2.46
YPPLEGHVRQGVFSSLAHIVEKRV [N17A]	2.48
YPPLEGHVRQGVFSSLHHIVEKRV [N17H]	2.21

Variant	protein stability index
YPPLEGHVRQGVFSSLQHIVEKRV [N17Q]	2.34
YPPLSGHVRQGVFSSLNHIVEKRV [E5S]	1.84
YPPLPGHVRQGVFSSLNHIVEKRV [E5P]	2.14
YPPLAGHVRQGVFSSLNHIVEKRV [E5A]	2.52
YPPLLGHVRQGVFSSLNHIVEKRV [E5L]	2.14
YPPLDGHVRQGVFSSLNHIVEKRV [E5D]	3.54
YPPLEGHVRQGVFSSLNHIVEKAV [R23A]	2.19
YPPLEGHVRQGVFSSLNHIVEKWV [R23W]	2.62
YPPLEGHVRQGVFSSLNHIVEKYV [R23Y]	2.48
YPPLEGHVRQGVFSSLNHIVEKIV [R23I]	2.17
YPPLEGHVRQGVFSSLNHIVEKGV [R23G]	2.2
YPPLEGHVRQGVFSSLNHIVEKCV [R23C]	2.22
YPPLEGHVMQGVFSSLNHIVEKRV [R9M]	2.47
YPPLEGHVEQGVFSSLNHIVEKRV [R9E]	3.52
YPPLEGHVNQGVFSSLNHIVEKRV [R9N]	2.75
YPPLEGHVHQGVFSSLNHIVEKRV [R9H]	2.96
YPPLEGHVPQGVFSSLNHIVEKRV [R9P]	2.77
YPPLEGHVFQGVFSSLNHIVEKRV [R9F]	2.09
YPPLEGHVRHGVFSSLNHIVEKRV [Q10H]	2.69
YPPLEGHVRSGVFSSLNHIVEKRV [Q10S]	3.33
YPPLEGHYRQGVFSSLNHIVEKRV [V8Y]	2.21
YPPLEGHVRQGVFSSLNHIVKKRV [E21K]	2.26
YPPLEGHVRQGVFSSLNHIVYKRV [E21Y]	2.23
YPPLEGHVRQGVFSSLNHIVFKRV [E21F]	2.72

Variant	protein stability index
YPPLEGHVRQGVFSSLNHIVAKRV [E21A]	2.23
YPPLEGHVRQGVFSSLNHIVHKRV [E21H]	2.86
YPPLEGHVRQGVFSSLNHIVDKRV [E21D]	3.35
YPPLEGHVRQGVFSSLNHIVPKRV [E21P]	2.26
YPPLEIHVRQGVFSSLNHIVEKRV [G6I]	1.76
YPPLEQHVRQGVFSSLNHIVEKRV [G6Q]	2.74
YPPLERHVRQGVFSSLNHIVEKRV [G6R]	2.3
YPPLEGPVRQGVFSSLNHIVEKRV [H7P]	2.01
YPPLEGYVRQGVFSSLNHIVEKRV [H7Y]	1.47
YPPLEGFVRQGVFSSLNHIVEKRV [H7F]	2.42
YPPLEGVVRQGVFSSLNHIVEKRV [H7V]	2.37
YPPLEGGVRQGVFSSLNHIVEKRV [H7G]	2.3
YPPLEGHVRQGVFSSANHIVEKRV [L16A]	3.33
YPPLEGHVRQGVFSSPNHIVEKRV [L16P]	2.93
YPPLEGHVRQGVFSSSNHIVEKRV [L16S]	2.49
YPPLEGHVRQGVFSSFNHIVEKRV [L16F]	2.14
YPPLEGHVRQGVFSSINHIVEKRV [L16I]	2.31
YPPLEGHVRQGVFSSMNHIVEKRV [L16M]	2.39
YPPLEGHVRQGVFSSQNHIVEKRV [L16Q]	3.01
YPPLEGHVRQGVFSSCNHIVEKRV [L16C]	2.24
YPPLEGHVRQGVFSSVNHIVEKRV [L16V]	3.1
YPPLEGHVRQGVFSSRNHIVEKRV [L16R]	4.03
YPPLEGHVRQGVFSSLNHIVEPRV [K22P]	3.01
YPPLEGHVRQGVFSSLNHIVEYRV [K22Y]	1.34

Variant	protein stability index
YPPLEGHVRQGVFSSLNHIVEGRV [K22G]	1.92
YGPLEGHVRQGVFSSLNHIVEKRV [P2G]	2.85
YEPLEGHVRQGVFSSLNHIVEKRV [P2E]	3.54
YVPLEGHVRQGVFSSLNHIVEKRV [P2V]	1.36
YLPLEGHVRQGVFSSLNHIVEKRV [P2L]	2.7
YTPLEGHVRQGVFSSLNHIVEKRV [P2T]	1.6
YPPYEGHVRQGVFSSLNHIVEKRV [L4Y]	1.83
YPPEEGHVRQGVFSSLNHIVEKRV [L4E]	1.08
YPPIEGHVRQGVFSSLNHIVEKRV [L4I]	2.74
YPPFEGHVRQGVFSSLNHIVEKRV [L4F]	3.06
YPPNEGHVRQGVFSSLNHIVEKRV [L4N]	2.19
YPPHEGHVRQGVFSSLNHIVEKRV [L4H]	3.01
YPPMEGHVRQGVFSSLNHIVEKRV [L4M]	2.45
YPPDEGHVRQGVFSSLNHIVEKRV [L4D]	2.46
YPPLEGHVRQGVFSSLNSIVEKRV [H18S]	2.65
YPPLEGHVRQGVFSSLNAIVEKRV [H18A]	1.86
YPPLEGHVRQGVFSSLNIIVEKRV [H18I]	1.99
YPPLEGHVRQGVFSSLNCIVEKRV [H18C]	2.01
YPPLEGHVRQGVFSSLNWIVEKRV [H18W]	1.39
YPPLEGHVRQGVFSSLNEIVEKRV [H18E]	2.91
YPPLEGHVRQGVFSSLNRIVEKRV [H18R]	3.42
YPPLEGHVRQGVFSSLNPIVEKRV [H18P]	3.04
